According to US20240279290A1 (Molecular Partners, published 2024):

Biological target: T1, cynomolgus serum albumin (cynomolgus)
T1 construct: also called CSA
Test: SPR (ProteOn XPR36), Protein #5 captured on hFAP-coated GLC chip, CSA as analyte, 1:1 Langmuir fit
Description: ProteOn setup for Protein #5 binding to serum albumin of different species. First, human FAP (hFAP) was coated on a GLC chip (BioRad) to a level of 700 RU before 50 nM Protein #5 was immobilized as analyle for 120 s (dissociation of 0 s) at constant flow of 100 μl/min to a level of 120 RU. The binding of the serum albumin to Protein #5 was measured by injecting human serum albumin (HSA), cynomolgus serum albumin (CSA) and mouse serum albumin (MSA) in a serial dilution of 100, 33, 11 and 3.7 nM with an association of 120 s and a dissociation of 600 s at a constant flow of 100 μl/min. HSA, CSA and MSA binding was measured serially and the hFAP/Protein #5 complex was regenerated each time with 10 mM glycine pH2 for 18 s at a flow of 100 μl/min. Thus, Protein #5 had to be re-immobilized on hFAP after each regeneration step. […] The kinetic was calculated on the first 300 s of dissociation.

T1 sequence (A2V9Z4 25-608): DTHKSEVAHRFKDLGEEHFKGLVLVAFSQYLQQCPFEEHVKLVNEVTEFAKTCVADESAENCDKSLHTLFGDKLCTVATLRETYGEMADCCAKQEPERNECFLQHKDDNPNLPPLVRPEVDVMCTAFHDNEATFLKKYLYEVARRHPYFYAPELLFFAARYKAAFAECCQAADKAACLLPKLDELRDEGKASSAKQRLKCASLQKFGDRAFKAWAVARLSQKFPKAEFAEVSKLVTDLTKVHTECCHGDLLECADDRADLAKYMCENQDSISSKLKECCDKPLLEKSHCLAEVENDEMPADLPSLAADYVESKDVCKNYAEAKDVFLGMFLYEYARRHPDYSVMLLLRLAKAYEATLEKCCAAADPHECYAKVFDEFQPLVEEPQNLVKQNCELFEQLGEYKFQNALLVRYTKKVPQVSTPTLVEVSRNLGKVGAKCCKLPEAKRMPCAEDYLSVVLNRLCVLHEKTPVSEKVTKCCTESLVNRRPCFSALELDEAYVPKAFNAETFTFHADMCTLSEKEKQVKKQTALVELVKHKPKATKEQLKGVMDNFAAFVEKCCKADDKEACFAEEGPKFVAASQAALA

B1: DARPin Protein #5 (designed binder)
chain: GSDLGKKLLEAARAGQDDEVRELLKAGADVNAKDYFSHTPLHLAARNGHLKIVEVLLKAGADVNAKDFAGKTPLHLAAADGHLEIVEVLLKAGADVNAQDIFGKTPADIAADAGHEDIAEVLQKAAGSPTPTPTTPTPTPTTPTPTPTGSDLGKKLLEAARAGQDDEVRILLAAGADVNAKDVLGWTPLHLAAFEGHLEIVEVLLKAGADVNAKDKKGWTPLQLAARTGHLEIVEVLLKAGADVNAKDHIGATPLHLAAWQGHPEIVEVLLKAGADVNAQDKSGKTPADLAADAGHEDIAEVLQKAAGSPTPTPTTPTPTPTTPTPTPTGSDLGKKLLQAARAGQLDEVRELLKAGADVNAKDTWGFTPLHIAAESGHLEIVEVLLKAGADVNAKDVQGRTPLHIAAHSGHLEIVEVLLKAGADVNAKDFRGWTPLHLAAWSGHLEIVEILLKAGADVNAQDKSGKTPADLAARAGHQDIAEVLQKAAGSPTPTPTTPTPTPTTPTPTPTGSDLGKKLLQAARAGQLDEVRELLKAGADVNAKDTWGFTPLHIAAESGHLEIVEVLLKAGADVNAKDVQGRTPLHIAAHSGHLEIVEVLLKAGADVNAKDFRGWTPLHLAAWSGHLEIVEILLKAGADVNAQDKSGKTPADLAARAGHQDIAEVLQKAA
notes: No tag is stated for this protein; also called SMA136; Molecule No. 1
  Kd: 409 nM
  koff: 0.217 s⁻¹
  kon: 532000 M⁻¹ s⁻¹
